Reference: patent CN106084048A (UNIV SUN YAT SEN, dated 2016)

Tests used:
[1] = target: CD3 on Jurkat cells (UniProt P07766); experiment: flow cytometry, culture supernatant on Jurkat cells (negative control)
[2] = target: T1, CD3-His蛋白(MP-5) (UniProt P07766 23-126); experiment: BLI (Octet RED96), sdAb-SASA from expression medium captured on BSA-coated biosensor, 100 nM CD3 in solution, 1:1 Langmuir fit, 30°C
T1 construct: Immunogen and panning antigen; The Octet method speaks only of 'CD3蛋白' in solution at 100 nM; also called CD3蛋白; not shown: His tag
T1 sequence (P07766 23-126): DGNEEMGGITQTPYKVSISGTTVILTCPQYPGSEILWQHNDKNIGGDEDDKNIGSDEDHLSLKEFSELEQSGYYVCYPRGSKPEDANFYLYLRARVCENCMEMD

[3] = target: CD3 on Jurkat cells (UniProt P07766); experiment: flow cytometry, culture supernatant on Jurkat cells

NC-sdAb(相同形式的非相关性sdAb) (VHH) was tested, and the MFI [1] was 115 MFI.

B1: 抗CD3单域抗体 C58 (VHH)
VHH: QVQLQESGGGLVQPGGSLRLSCAASGFTLDYYAIGWFRQAPGKEREGVSCISSGDGTTYYADSVKGRFTISRDNAKNTVYLQMNSLKPEDTAVYYCAAARTRKVISIATMTLDPKVFASWGQGTQVTVSS
notes: Llama sdAb from a phage library; Tested as unpurified sdAb-SASA protein in E. coli expression medium / culture supernatant (FASEBA format); 3 in its text; also called sdAb C58; not shown: SASA fusion partner of the pFASEBA vector (sdAb-SASA protein in the expression medium)
With B1 the koff [2] was 3.91e-05 s⁻¹ and the MFI [3] was 245 MFI.

B2: 抗CD3单域抗体 C57 (VHH)
VHH: QVQLQESGGGLVQAGDSLRLSCAASGRTFSSYVMGWFRQAPGKEREFVAAIRWSGGSTYYADSVKGRFTISRDNAKNTMYLQMNSLKPEDTAVYYCAAAQKINTDVTGAYWGQGTQVTVSS
notes: Llama sdAb from a phage library; Tested as unpurified sdAb-SASA protein in E. coli expression medium / culture supernatant (FASEBA format); 1 in its text; also called sdAb C57; not shown: SASA fusion partner of the pFASEBA vector (sdAb-SASA protein in the expression medium)
B2 was tested, and the koff [2] was 4.6e-05 s⁻¹ and the MFI [3] was 213 MFI.
